Test results from article PMC3855908 (Traffic (Copenhagen, Denmark), 2013).

Legend:
[1] = molecular target: T1, Pan1 (recombinantly purified, unpublished data) (yeast, UniProt P32521 1-1480)
T1 sequence (looked up): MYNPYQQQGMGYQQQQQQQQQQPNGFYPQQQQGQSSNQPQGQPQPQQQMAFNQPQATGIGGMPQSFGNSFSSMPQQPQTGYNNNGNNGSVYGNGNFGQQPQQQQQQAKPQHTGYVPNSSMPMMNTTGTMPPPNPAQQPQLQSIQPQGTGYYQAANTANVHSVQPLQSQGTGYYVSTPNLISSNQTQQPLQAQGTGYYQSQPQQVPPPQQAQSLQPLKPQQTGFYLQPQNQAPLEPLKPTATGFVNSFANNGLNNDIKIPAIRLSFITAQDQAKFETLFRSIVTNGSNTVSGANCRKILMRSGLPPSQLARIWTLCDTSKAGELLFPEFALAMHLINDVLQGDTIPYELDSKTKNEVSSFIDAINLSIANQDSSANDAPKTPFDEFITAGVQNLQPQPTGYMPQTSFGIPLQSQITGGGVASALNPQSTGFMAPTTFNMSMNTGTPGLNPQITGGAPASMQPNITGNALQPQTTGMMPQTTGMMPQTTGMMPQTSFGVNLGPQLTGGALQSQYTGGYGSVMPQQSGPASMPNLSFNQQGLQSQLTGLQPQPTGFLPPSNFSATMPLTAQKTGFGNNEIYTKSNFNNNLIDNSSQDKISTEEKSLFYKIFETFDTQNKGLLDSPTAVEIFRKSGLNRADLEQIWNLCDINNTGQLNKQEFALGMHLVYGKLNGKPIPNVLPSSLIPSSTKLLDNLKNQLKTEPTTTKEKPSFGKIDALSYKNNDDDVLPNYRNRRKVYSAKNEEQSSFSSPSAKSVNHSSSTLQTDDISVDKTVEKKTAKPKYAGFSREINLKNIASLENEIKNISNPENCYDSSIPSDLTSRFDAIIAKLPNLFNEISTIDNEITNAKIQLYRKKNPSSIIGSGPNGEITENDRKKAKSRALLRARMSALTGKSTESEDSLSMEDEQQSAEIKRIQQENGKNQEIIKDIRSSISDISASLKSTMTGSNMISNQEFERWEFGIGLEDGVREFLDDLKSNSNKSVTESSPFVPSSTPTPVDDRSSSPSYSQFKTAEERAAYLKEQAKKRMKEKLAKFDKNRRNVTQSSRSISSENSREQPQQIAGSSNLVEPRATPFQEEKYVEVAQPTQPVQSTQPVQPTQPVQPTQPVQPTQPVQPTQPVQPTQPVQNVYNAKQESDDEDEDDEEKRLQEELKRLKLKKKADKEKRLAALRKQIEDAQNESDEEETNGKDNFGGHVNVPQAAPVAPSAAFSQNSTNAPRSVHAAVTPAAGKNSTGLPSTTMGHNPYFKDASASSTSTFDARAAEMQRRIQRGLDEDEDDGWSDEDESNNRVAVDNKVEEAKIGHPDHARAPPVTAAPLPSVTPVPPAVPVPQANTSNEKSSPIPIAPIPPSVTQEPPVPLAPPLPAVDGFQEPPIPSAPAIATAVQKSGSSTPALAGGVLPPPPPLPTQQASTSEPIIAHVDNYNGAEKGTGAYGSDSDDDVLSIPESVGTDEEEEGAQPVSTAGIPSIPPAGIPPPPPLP

[2] = molecular target: T2, Gal4 DBD-Pan1^792–948 (yeast, UniProt P32521 792-948); assay: two-hybrid
T2 sequence (looked up): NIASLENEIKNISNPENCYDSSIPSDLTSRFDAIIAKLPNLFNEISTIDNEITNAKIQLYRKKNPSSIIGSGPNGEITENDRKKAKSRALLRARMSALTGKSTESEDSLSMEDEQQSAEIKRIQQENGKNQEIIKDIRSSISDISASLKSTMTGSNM

[3] = molecular target: T3, Gal4 DBD-Pan1^687–846 (yeast, UniProt P32521 687-846); assay: two-hybrid
T3 sequence (looked up): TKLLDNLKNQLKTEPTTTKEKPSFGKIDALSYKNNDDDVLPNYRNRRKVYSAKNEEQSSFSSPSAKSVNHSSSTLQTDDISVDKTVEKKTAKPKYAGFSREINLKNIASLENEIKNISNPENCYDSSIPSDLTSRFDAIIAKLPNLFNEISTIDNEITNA

[4] = molecular target: T4, Gal4 DBD-Pan1^687–1190 (yeast, UniProt P32521 687-1190); assay: two-hybrid
T4 sequence (looked up): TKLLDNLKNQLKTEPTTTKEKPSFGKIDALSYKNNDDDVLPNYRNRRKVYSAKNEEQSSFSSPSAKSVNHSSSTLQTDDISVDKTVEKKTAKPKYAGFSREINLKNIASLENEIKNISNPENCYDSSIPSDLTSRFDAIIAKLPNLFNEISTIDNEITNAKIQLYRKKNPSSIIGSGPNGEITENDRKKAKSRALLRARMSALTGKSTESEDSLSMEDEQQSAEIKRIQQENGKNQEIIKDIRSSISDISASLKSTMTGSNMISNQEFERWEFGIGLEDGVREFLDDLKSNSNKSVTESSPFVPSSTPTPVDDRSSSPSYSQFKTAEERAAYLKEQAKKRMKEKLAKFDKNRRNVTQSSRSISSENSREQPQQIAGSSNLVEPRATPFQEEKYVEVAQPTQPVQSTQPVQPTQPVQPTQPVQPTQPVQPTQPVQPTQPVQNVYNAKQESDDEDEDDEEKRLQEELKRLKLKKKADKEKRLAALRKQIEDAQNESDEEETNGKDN

B1: End3 (recombinantly purified, unpublished data) (natural protein, yeast, UniProt P39013 1-349, looked up)
chain: MPKLEQFEIKKYWQIFSGLKPIENKVNHDQVLPILYNSKLDSSVLNKIWFLADIDDDDNLDFEEFVICMRLIFDMVNKNISSVPDELPDWLIPGSKVNLIKERKKRKQIENADLPPKKEIKVDWYMSPDDLNQYEKIYNSCAKLTDGTITFNELSTKLSTKFFNISKTDLNKVWSLINPQNLPSIDRDPTFYFIHCLRQRNDLGAEIPASLPNSLAEVCNKKQLSYDLRSSQPPTKRKEEANEVDNLRDNGQNSSSDSSGSNVLSNEDSIKQKYASLTDDQVANMREQLEGLLNYKKSEKTQGGSKLSKRINIRSITDDLDNIEQQVEVLENYLNNKRHELQALQAEIN
[1]
  stoichiometry N: 1

B2: Gal4 AD-End3^176–349 (domain or fragment, yeast, UniProt P39013 176-349, looked up)
chain: LINPQNLPSIDRDPTFYFIHCLRQRNDLGAEIPASLPNSLAEVCNKKQLSYDLRSSQPPTKRKEEANEVDNLRDNGQNSSSDSSGSNVLSNEDSIKQKYASLTDDQVANMREQLEGLLNYKKSEKTQGGSKLSKRINIRSITDDLDNIEQQVEVLENYLNNKRHELQALQAEIN
[2]
  Miller Units: 99.7 Miller Units
[3]
  Miller Units: 80.1 Miller Units
[4]
  Miller Units: 412 Miller Units
